The supplement of paper PMC9112550, “Optimization of the antimicrobial peptide Bac7 by deep mutational scanning” (BMC Biology, 2022)

Tested on: Escherichia coli TOP10
Experiment: shrunken log2 fold change of peptide-encoding DNA abundance (4.5 h post-induction vs induction); higher = less antimicrobial activity (less host growth inhibition)
Settings: time post-induction: 4.5 h; library: site-saturation at positions 5, 18, 19, 20
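Note: peptides expressed intracellularly from a pBAD plasmid library in pooled LB shake-flask culture, induced with 0.3% L-arabinose, DNA abundance read by NGS, three biological replicates, DESeq2 with apeglm shrinkage.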

Row | Sequence | shrunken log2 fold change
1 | RRIRFRPPRLPRPRPRPFGKPRP | -0.00111
2 | RRIRLRPPRLPRPRPRPWTPPRP | -0.191
3 | RRIRIRPPRLPRPRPRPVRLPRP | 0.499
4 | RRIRMRPPRLPRPRPRPTDWPRP | 1.27
5 | RRIRNRPPRLPRPRPRPLYNPRP | -0.0372
6 | RRIRERPPRLPRPRPRPSQEPRP | -0.0844
7 | RRIRDRPPRLPRPRPRPSNEPRP | -1.13
8 | RRIRYRPPRLPRPRPRPRYAPRP | -0.0163
9 | RRIRIRPPRLPRPRPRPVIMPRP | -0.334
10 | RRIRSRPPRLPRPRPRPPQMPRP | 0.154
11 | RRIRFRPPRLPRPRPRPKDWPRP | 0.233
12 | RRIRKRPPRLPRPRPRPNFYPRP | 0.0337
13 | RRIRARPPRLPRPRPRPFVSPRP | -0.00645
14 | RRIRLRPPRLPRPRPRPFMNPRP | -0.217
15 | RRIRHRPPRLPRPRPRPQLKPRP | 0.114
16 | RRIRIRPPRLPRPRPRPNCNPRP | -0.845
17 | RRIRARPPRLPRPRPRPVENPRP | 0.25
18 | RRIRSRPPRLPRPRPRPLRVPRP | 1.29
19 | RRIRIRPPRLPRPRPRPAVWPRP | 0.141
20 | RRIRMRPPRLPRPRPRPQILPRP | -0.0502
21 | RRIRKRPPRLPRPRPRPALSPRP | 0.253
22 | RRIRLRPPRLPRPRPRPRDHPRP | 0.0215
23 | RRIRYRPPRLPRPRPRPISEPRP | -0.0398
24 | RRIRARPPRLPRPRPRPRPGPRP | 0.814
25 | RRIRFRPPRLPRPRPRPFCVPRP | -0.722

Row | Sequence | shrunken log2 fold change
26 | RRIRMRPPRLPRPRPRPYARPRP | -0.00176
27 | RRIRYRPPRLPRPRPRPSKYPRP | -0.401
28 | RRIRWRPPRLPRPRPRPSGRPRP | 0.201
29 | RRIRCRPPRLPRPRPRPICHPRP | 1.48
30 | RRIRTRPPRLPRPRPRPEAFPRP | 0.0195
31 | RRIRCRPPRLPRPRPRPYPRPRP | -0.00439
32 | RRIRWRPPRLPRPRPRPIGTPRP | 0.175
33 | RRIRSRPPRLPRPRPRPYSMPRP | -0.721
34 | RRIRYRPPRLPRPRPRPPEFPRP | 0.00678
35 | RRIRHRPPRLPRPRPRPPVLPRP | 0.0936
36 | RRIRVRPPRLPRPRPRPTEEPRP | 0.0849
37 | RRIRMRPPRLPRPRPRPYQYPRP | -0.0219
38 | RRIRARPPRLPRPRPRPMMLPRP | -0.00455
39 | RRIRHRPPRLPRPRPRPGYDPRP | 0.381
40 | RRIRCRPPRLPRPRPRPHWNPRP | -0.551
41 | RRIRKRPPRLPRPRPRPFIVPRP | -0.345
42 | RRIRFRPPRLPRPRPRPINFPRP | -0.601
43 | RRIRNRPPRLPRPRPRPFSQPRP | -0.021
44 | RRIRCRPPRLPRPRPRPKCDPRP | -0.135
45 | RRIRFRPPRLPRPRPRPGTWPRP | -0.153
46 | RRIRIRPPRLPRPRPRPNVMPRP | -0.328
47 | RRIRTRPPRLPRPRPRPCHNPRP | -0.0285
48 | RRIRERPPRLPRPRPRPSHSPRP | -1.37
49 | RRIRERPPRLPRPRPRPHYNPRP | -1.12
50 | RRIRMRPPRLPRPRPRPIDLPRP | -0.00804

Row | Sequence | shrunken log2 fold change
51 | RRIRQRPPRLPRPRPRPWTWPRP | -0.0328
52 | RRIRPRPPRLPRPRPRPVVYPRP | -0.538
53 | RRIRTRPPRLPRPRPRPQVEPRP | -0.00619
54 | RRIRRRPPRLPRPRPRPDWAPRP | -0.221
55 | RRIRCRPPRLPRPRPRPNWQPRP | -0.145
56 | RRIRERPPRLPRPRPRPMPQPRP | -0.201
57 | RRIRERPPRLPRPRPRPPHEPRP | 0.731
58 | RRIRTRPPRLPRPRPRPCTDPRP | -0.502
59 | RRIRLRPPRLPRPRPRPNCPPRP | -0.213
60 | RRIRARPPRLPRPRPRPSQEPRP | 0.0769
61 | RRIRGRPPRLPRPRPRPHDIPRP | 0.0295
62 | RRIRPRPPRLPRPRPRPGQIPRP | -0.0497
63 | RRIRYRPPRLPRPRPRPCKTPRP | -0.154
64 | RRIRNRPPRLPRPRPRPHPWPRP | 0.0589
65 | RRIRRRPPRLPRPRPRPIHAPRP | -0.102
66 | RRIRYRPPRLPRPRPRPYKDPRP | -0.748
67 | RRIRWRPPRLPRPRPRPALRPRP | 0.243
68 | RRIRNRPPRLPRPRPRPLCMPRP | -0.218
69 | RRIRIRPPRLPRPRPRPVCDPRP | -0.372
70 | RRIRFRPPRLPRPRPRPLLPPRP | -0.142
71 | RRIRMRPPRLPRPRPRPQSIPRP | -0.0553
72 | RRIRLRPPRLPRPRPRPAWEPRP | 0.185
73 | RRIRNRPPRLPRPRPRPCMGPRP | -0.256
74 | RRIRVRPPRLPRPRPRPLDHPRP | -0.194
75 | RRIRGRPPRLPRPRPRPTRYPRP | 0.357

Row | Sequence | shrunken log2 fold change
76 | RRIRHRPPRLPRPRPRPNCWPRP | 0.612
77 | RRIRRRPPRLPRPRPRPDDYPRP | -0.377
78 | RRIRERPPRLPRPRPRPHIIPRP | -0.412
79 | RRIRTRPPRLPRPRPRPTAWPRP | 0.48
80 | RRIRCRPPRLPRPRPRPPEDPRP | 0.754
81 | RRIRSRPPRLPRPRPRPPKRPRP | 0.626
82 | RRIRMRPPRLPRPRPRPHKIPRP | -0.188
83 | RRIRTRPPRLPRPRPRPLNKPRP | -0.225
84 | RRIRMRPPRLPRPRPRPKILPRP | 0.289
85 | RRIRCRPPRLPRPRPRPWQWPRP | 0.187
86 | RRIRYRPPRLPRPRPRPSCPPRP | -0.851
87 | RRIRLRPPRLPRPRPRPHISPRP | -0.272
88 | RRIRPRPPRLPRPRPRPGQEPRP | 0.031
89 | RRIRDRPPRLPRPRPRPHKIPRP | -0.524
90 | RRIRRRPPRLPRPRPRPHHTPRP | -0.408
91 | RRIRERPPRLPRPRPRPGPYPRP | -0.208
92 | RRIRNRPPRLPRPRPRPGPHPRP | 0.0143
93 | RRIRKRPPRLPRPRPRPIWEPRP | 0.295
94 | RRIRRRPPRLPRPRPRPFFSPRP | 0.043
95 | RRIRKRPPRLPRPRPRPRGKPRP | 0.126
96 | RRIRPRPPRLPRPRPRPMDHPRP | 0.0131
97 | RRIRFRPPRLPRPRPRPDPWPRP | 0.0822
98 | RRIRGRPPRLPRPRPRPKEAPRP | 0.948
99 | RRIRARPPRLPRPRPRPMKQPRP | 0.0535
100 | RRIRDRPPRLPRPRPRPTEYPRP | -0.154

Row | Sequence | shrunken log2 fold change
101 | RRIRIRPPRLPRPRPRPARYPRP | -0.264
102 | RRIRYRPPRLPRPRPRPRDAPRP | -0.103
103 | RRIRMRPPRLPRPRPRPVPGPRP | 0.882
104 | RRIRHRPPRLPRPRPRPPTHPRP | -0.117
105 | RRIRDRPPRLPRPRPRPLYLPRP | -0.648
106 | RRIRRRPPRLPRPRPRPMLDPRP | 0.116
107 | RRIRKRPPRLPRPRPRPEVRPRP | 1.86
108 | RRIRKRPPRLPRPRPRPWFMPRP | -0.202
109 | RRIRYRPPRLPRPRPRPHSCPRP | -0.00211
110 | RRIRPRPPRLPRPRPRPECTPRP | 0.0119
111 | RRIRARPPRLPRPRPRPFSEPRP | -0.122
112 | RRIRHRPPRLPRPRPRPANPPRP | 0.0212
113 | RRIRLRPPRLPRPRPRPINSPRP | 0.0605
114 | RRIRDRPPRLPRPRPRPSHRPRP | 0.102
115 | RRIRGRPPRLPRPRPRPQLTPRP | 0.644
116 | RRIRWRPPRLPRPRPRPKDYPRP | 0.0778
117 | RRIRKRPPRLPRPRPRPIYCPRP | -0.0201
118 | RRIRQRPPRLPRPRPRPGIHPRP | 0.0177
119 | RRIRFRPPRLPRPRPRPDFSPRP | -0.259
120 | RRIRWRPPRLPRPRPRPCGTPRP | 0.481
121 | RRIRERPPRLPRPRPRPMQPPRP | -0.0115
122 | RRIRPRPPRLPRPRPRPAYIPRP | -0.518
123 | RRIRHRPPRLPRPRPRPIARPRP | 0.116
124 | RRIRIRPPRLPRPRPRPATYPRP | 0.00351
125 | RRIRKRPPRLPRPRPRPHPFPRP | 0.188
